Experimental data from the DeepSol protein solubility set.

Test: soluble on expression in E. coli; label from the status in PepcDB or PDB records

Sequence	soluble on expression in E. coli
MTHVCSVILIRRSFDIYHEQQKISLHNESILLLEKNLADDFAFCSPDTRRLDIDELTVCHYLQNIRQLPRNLGLHSKDRLLINQSPPMPLVTAIFDSFNESGVNSPILSNMLYLSCLSMFSHKKELIPLLFNSISTVSGKVERLISFDIAKRWYLRDIAERMYTSESLIKKKLQDENTCFSKILLASRMSMARRLLELRQIPLHTIAEKCGYSSTSYFINTFRQYYGVTPHQFAQHSPGTFS	not soluble
MGSDKIHHHHHHMFSAMLEVNPIPEQFDAYLGMAKMLRPELEKIEGFIDNERYESLTRPGWLLSLSNWRDEKSLIRWRTTTKHHKVQQAARDRIFADYRLRIGEVDTDTHLPIGEALHQQRLDVTEAGEGKAVTLLDADRSRYWLNGASAEAVAKSLGLDAQARGLLAWDVFKALLSPEEVIVVLTWRDEAAALAFGKNARLPGDVRLRSIRIVREYGMFDRREAPQYFEEVPRKA	not soluble
MERINFIFGIHNHQPLGNFGWVFEEAYNRSYRPFMEILEEFPEMKVNVHFSGPLLEWIEENKPDYLDLLRSLIKRGQLEIVVAGFYEPVLAAIPKEDRLVQIEMLKDYARKLGYDAKGVWLTERVWQPELVKSLREAGIEYVVVDDYHFMSAGLSKEELFWPYYTEDGGEVITVFPIDEKLRYLIPFRPVKKTIEYLESLTSDDPSKVAVFHDDGEKFGVWPGTYEWVYEKGWLREFFDAITSNEKINLMTYSEYLSKFTPRGLVYLPIASYFEMSEWSLPAKQAKLFVEFVEQLKEEGKFEKYRVFVRGGIWKNFFFKYPESNFMHKRMLMVSKAVRDNPEARKYILKAQCNDAYWHGVFGGIYLPHLRRTVWENIIKAQRYLKPENKILDVDFDGRAEIMVENDGFIATIKPHYGGSIFELSSKRKAVNYNDVLPRRWEHYHEVPEATKPEKESEEGIASIHELGKQIPEEIRRELAYDWQLRAILQDHFIKPEETLDNYRLVKYHELGDFVNQPYEYEMIENGVKLWREGGVYAEEKIPARVEKKIELTEDGFIAKYRVLLEKPYKALFGVEINLAVHSVMEKPEEFEAKEFEVNDPYGIGKVRIELDKAAKVWKFPIKTLSQSEAGWDFIQQGVSYTMLFPIEKELEFTVRFREL	soluble
MAHHHHHHMKSSSKDLCKYFCRKCNNFIYYNEACELIYKKIYPDYYKIYYNKYEFDKKTKGKKEVNPKQYDNLYRQLYNNGLCGVNKQRNDFLNKDNINNILLFLNKGSIQCNKCNHIHMWYMK	soluble
MSNPQDDKPIDQEQEAHVILKVKSQDGDEVLFKNKKSAPLKKLMYVYCDRRGLKLDAFAFIFNGARIGGLETPDELDMEDGDVIDACRAMSGGLRANQRQWSYMLFDHNGL	not soluble
MSEKWIPEIMTPLKQDIVKMPEIIRQASGIKIFGRKIKSIIFTTDIAIIRNTDAQAVIAVYPFTPHPAITKGIIEAADIPVFSGVGGGLTQGMRSAYMSLFAEAQGSMGVVLNGPTPIETIKMVDEAIDIPIISTVTSIHTPIDEKLAAGVDMINISAGKDTAATVRYFRGKYPELPIIATGGPTESSIHETIIAGANAITYTPPSNGELFSKKMKKYREQEKATDEE	soluble
MGSDKIHHHHHHMDSLDQCIVNACKNSWDKSYLAGTPNKDNCSGFVQSVAAELGVPMPRGNANAMVDGLEQSWTKLASGAEAAQKAAQGFLVIAGLKGRTYGHVAVVISGPLYRQKYPMCWCGSIAGAVGQSQGLKSVGQVWNRTDRDRLNYYVYSLASCSLPRAS	not soluble
MEVPEIEKQIGINLYSTDTTGLGGQLRQEIEDFIVKEITNREEGEEGKYLIVELTKRDWDTHHLTRTLSRILQVSQKRISVAGTKNKRALTTQKISIFDTDASEIEKIHLKDIELKVLGRSRKSVELGDLWGNDFRITVRNIENSPEETEALLKKTTDEILAQGGVPNFFGIQRFGSVRPVTHLVGKAIVEGNFEKAALLYIAEPFPEEPEETKNARQFVKDTLDFKEGLKTYPLRLGHERAMMNHLIANPEDYSGSFRVLPQNLYRMFVHGYQSYIYNIILCRRIEAGIPLNRAVEGDIVCFRNEVGLPDSSKTEKVTSETVNAMNRLLKLGRAFITAPLPGYNTEFASGIPGEIENGVLKELGVSLEGFNIEKFPEMSSKGTRREVLLEVKPKFEAGEDELNPGKSKAVLEFMLPKGSYATTVLREYMKVNPLQMSLEHHHHHH	soluble
SIRFVIDREECFSHKAEYEGDTLHVSFVVIKSDSQWHFNEDGVDLVIHGPTGEQIHDFREQISAKHDFVVQKKGVYRFCFTNKSPYHETIDFDVQLGHFAYYDQHAKDEHFTPLMEQISKLEEALYNIQFEQHWLEAQTDRQAIVNENMSKRAVHKALFESFALIGASFLQVYLLRRLFERKLGMSRV	soluble
MGSDKIHHHHHHMTKKLTNQLIDVTSGRNFRELGGYETNSGKKIKMHKLLRTGNLADLSPFDKQFLTDYGVKYDVDFRSKEEVERQPDRVPDGVEYIYDPVFSEDLTNSSKSINDLNTQASDDADFGFNHMHYAYEDMIESESAQKAYRKFFDVLLKNDVEGESVIFHCTAGKDRTGFGALLILSALGVPFNTIKKDYLLTNITTKEFVESMVEHARQNGRNENVLQSIRDIQSVRAEYIDHAVKIINDDYGSIHNYLRDMMKLSSADIMKLRNIYLED	not soluble
MAHHHHHHMWRLRSPGPCAGHVARPAAFTACRVVVGSSGATSADAASFRTTSAGAALVVAHRRKSYHFFMNLDDPDATRRRIEEDLDRLASDEKKDTTAYLHSLLNLALSHYQRGDFISARDMADYTHQKALVHNSKSSLIYFTATTCAHCAEALAKEYEAHLQRKDEQSHVSATLTPEPSVVFSARRAIKKLRADAERYRGIAHRVYHRPDMAFMRGSGGGGSGRWRSSARHAEGRDTRHTWADDSSNNGVDEDYIPHMYGPRWQDRRKRPEHAEMKHYYKHQCGTSPSSRGKTQWNVPK	not soluble
MSQLLKLKSQYDDECTVTRHYEGKGRNAGRLGAVGCKNRHGEFRIGSGFKDKDRDNPPKIGTLITYRYRGFTRKGTPKFATFVRVRTLEHHHHHH	not soluble
MLRRVNEQGPVQGRAQAPVKPDDSVPPELARARVWILTDGKAGDENQCIGIAEALGLAYETRRIPDGRPLTWMAPWGPIDPRDAPGRAGGLLQGPLPHLLIASGRRAVPYLRAVRRASDEKTFTAFLKDPRTGHDTADFIWVPDYDDLRGPNVFTTLTAPHPVSRARLDAARTTPDPRLARLPWPRIAVLIGGDSRHLRYRKADMQRLVRDLTKLAEGGCSLMLTVSRRTPPDLRKALEDLVKDKGGFFWDGSGENPYVGMLAIADHIVVTSDSANMVGEAASTGVPLLLFDLPRTYIRHRRMFAGLAMAGALKPFIGRLEALRYAPIDATPEIAAALAEGYQRHRARLAGEVAAVPRPAEPTSAPRGPFLEHHHHHH	not soluble
MATCLVEFAKSPPVFSPGEKVTGNVKMTIPDDEFKARKVRMEMIGKAYTYWEGNVRNNHTKIKNGDIARVRHNCADHKGKIVYCRFETIVWKSDGAKNDMPSGPHIFPFSFQLPHWAPPSFEGDLGFIRYFIKVEIDRPWKFDDKFITCLTVLPNIDLRLIPNSQVPSKKHVCEEFGAVLWKNGLVRMELRLPKQGFVCGENIPVTMIVDNKTSKSFKKISLRLVQRVTYTGFRDGFVNSHSQPCIGNEKEKITYATRLNAQTRVEERQISETNIDIKIDKNEKQEVEKPIPLPPLPPSTKTCEIIDVEYFLKVKMSTSGALKSAVKLELAFIIGTMPIDPERKYEYKKSVFGFAATSLKNRDVQKFAPLYPVFKFDE	not soluble
MSLLVIPAIDLQSGRCVRLKQGRFDQVTQFSVFPIERALHFAKLGAKRLHVVDLDGARSGKMQQLELICSMQKTGIPIQAGGGIRSIEQALECSNAGISQLVIGSLAITNPDLTIQIIEKIKPENIVLALDVRVDTKVPLLAINGWQNNSTSSLWEVVSYYENYGIKNILCTDIACDGMMNGPNFDLYQQAVEYFPQIAWQASGGVRHMQDITTLNSLGISAVILGLMLYQDHMNLEELLEGHHHHHH	soluble
MVESKATLEEYVQTQLLQNWIYNDGAYLSLAFDAMCEGNFDRLCELDWQLSATKVARESREGSFKLGVRLLKIFIRYETHTLLTAYQQAIAEKRVQGYFPIVFAMVAQAMGLSKADTLYAFYYNAAVGVITNGVKLIPLSQMDGQDILFDLRGSLVQAVELSLDPDEEWLGAATLANDIRAMQHEVLYTRLYMSLEHHHHHH	not soluble
MSLTHVIWDMGETLNTVPNTRYDHHPLDTYPEVVLRKNAKETLEKVKQLGFKQAILSNTATSDTEVIKRVLTNFGIIDYFDFIYASNSELQPGKMEKPDKTIFDFTLNALQIDKTEAVMVGNTFESDIIGANRAGIHAIWLQNPEVCLQDERLPLVAPPFVIPVWDLADVPEALLLLKKISEGHHHHHH	soluble
MGSDKIHHHHHHMNFDFDLPAKALFRAMPICRENTRFNIDGVLIDPDPNGGAWLVATDGKGMLVQYDPDTKVPEKCVVKVSAAWLTETRFDYDMSLIGDLNDIHWCDTRLEFSKDTMTAMSSDFDIAHCLAEAGPDVFCQIRYNPISFPDWRKALDTSANTSELARPVERQTALDTGYLTDLIGWSRGFQVNPAPAGHARLISFVGEPNTFAVLMPMVADATDPLPPLLERAGRADLIQGPQRAAE	not soluble
GSHMLTKQQIRYCLDEMAKMFPDAHCELVHRNPFELLIAVVLSAQCTDALVNKVTKRLFEKYRTPHDYIAVPLEELEQDIRSIGLYRNKARNIQKLCAMLIDKYNGEVPRDRDELMKLPGVGRKTANVVVSVAFGVPAIAVDTHVERVSKRLGFCRWDDSVLEVEKTLMKIIPKEEWSITHHRMIFFGRYHCKAQSPQCPSCPLLHLCREGKKRMRKREEKAANQK	soluble
MLPKPGTYYLPWEVSAGQVPDGSTLRTFGRLCLYDMIQSRVTLMAQHGSDQHQVLVCTKLVEPFHAQVGSLYIVLGELQHQQDRGSVVKARVLTCVEGMNLPLLEQAIREQRLYKQERGGSQ	soluble
MKESYYSIGEVSKLANVSIKALRYYDKIDLFKPAYVDPDTSYRYYTDSQLIHLDLIKSLKYIGTPLEEMKKAQDLEMEELFAFYTEQERQIREKLDFLSALEQTISLVKKRMKRQMEYPALGEVFVLDEEEIRIIQTEAEGIGPENVLNASYSKLKKFIESADGFTNNSYGATFSFQPYTSIDEMTYRHIFTPVLTNKQISSITPDMEITTIPKGRYACIAYNFSPEHYFLNLQKLIKYIADRQLTVVSDVYALIIPIHYSPKKQEEYRVEMKIRILDHHHHHH	soluble
MGSDKIHHHHHHMFTLYERKNRQKSNVNIFVMNYVTNLTKENLAGERIGVFFGTFAPLHVGHQAEIYKAAALNDGVLVVTSGYTGDRGEQIGLPLRKRFRYLRQAFADEWQIKVDYLNEDGIPKMPDGWDVWLDKLLGIIKRNIVNKNAKITFYTGEPDYKKEIEKRLGDNPQFRVSLMDRTILNISATKIRKEPLKYWDYINRVFRRHFVQKVVVMGSSNSGKSTLIRRLARSANSPFSDDFAAIYQEESNVADSEMDIKDYSNIIQGQYQANSLEINSPANNGLAIFNGDAISLQAYSNLLLNQDERLQLKHLYNTIISAEEFDLILVIPPFSDPRRKVIRFTGAAIDPVAYYQELIRLIDFYGFSDKMVVLNAKNQTDDPAGYYARYLQALDAIEKYTSFDIEHHR	not soluble
MKSAELKYLDFEDFTKLIALAKEKINPIYSSSFMIYIAAMTGMRFSELLGLTWDNVDFEKGQIYVKRTWDIYKNNFAPTKNDQSVRFLAIDSSTMQVMINYKEQQEKLLKRLEIEPEHPFVFYNIKNGLITNNSLNKQLRNMCKKLGFKKIITCHGLRHTHASTMLYKGINILYVSKRLGHSSLNVTMSVYSHILKELEEKDNENIKKIFSEINDELEHHHHHH	soluble
